Results on 25 molecules are retold here after US20250064909A1 (MEDIMABBIO, published 2025).

Numbering of substitutions follows the chain as printed.

Broadly, the Kd is the constant that tells how readily two partners part at equilibrium. Broadly, the koff is the first-order rate constant of dissociation. Broadly, the kon is the rate constant with which the complex forms.

Assay [1] concerns the target T1, recombinant human TIGIT (Sino Biological) (human, UniProt Q495A1 22-138).
T1 construct: Bought protein; NP_776160.2; also called human TIGIT antigen; hTIGIT
T1 sequence: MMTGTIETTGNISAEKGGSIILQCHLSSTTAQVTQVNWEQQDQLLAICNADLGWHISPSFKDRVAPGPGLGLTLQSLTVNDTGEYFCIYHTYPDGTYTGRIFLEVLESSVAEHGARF
In words: SPR single cycle kinetics; KD divided by KD of the VH0/Vκ0 chimeric antibody.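 Further: biacore T200 SPR at 25 °C, IgG captured on anti-human chip, TIGIT analyte in four rising concentrations, 210 s association each, 900 s dissociation.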

Assay [2] deals with T2, recombinant human TIGIT (Acrobiosystems) (human, UniProt Q495A1 22-141).
T2 construct: Bought protein; also called hTIGIT; human TIGIT antigen
T2 sequence: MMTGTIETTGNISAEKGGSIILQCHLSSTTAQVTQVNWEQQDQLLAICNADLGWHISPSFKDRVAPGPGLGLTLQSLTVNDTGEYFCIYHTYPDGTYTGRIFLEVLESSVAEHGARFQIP
In words: SPR (Biacore T200), multi-cycle kinetics, purified IgG captured on anti-human IgG CM5 chip, TIGIT as analyte, 1:1 fit.

Assay [3] addresses T1, recombinant human TIGIT (Sino …). In words: SPR (Biacore T200), single cycle kinetics, IgG from supernatant captured on anti-human chip, TIGIT as analyte, 1:1 fit.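 Further: measured at 25 °C in HBS-P+ with 1% BSA, four ascending TIGIT concentrations, 210 s association per step, one final 900 s dissociation.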

B1: 7A6 VH0/Vκ0 chimeric antibody (human IgG1, kappa) (antibody, V domains shown)
VH: DVQLQESGPGLVKPSQSLSLTCTVTGYSITSDYAWNWIRQFPGNKLEWMGYISYSGSARYNPSLKSRISITRDTSMNQFFLQLNSVTAEDTATYYCARKGYPAYFAYWGQGTLVTVSS
VL: DIVMTQSHKFMSTSVGDRVSISCKASQDVSTAVAWYQQKPGQSPELLIYSASYRYTGVPDRFTGSGSGTDFTFTISSVQAEDLAVYYCQHHYSTPYTFGGGTKLEMKR
notes: Mouse 7A6 variable regions on human IgG1/kappa constant regions; also called VH0/Vk0; 7A6 VH0Vk0
As for B1, the “Relative KD” value in assay [1] is 1. Besides, in assay [2], the Kd was determined as 0.077 nM, the koff was 0.000176 s⁻¹ and the kon was found to be 2.28e+06 M⁻¹ s⁻¹. Besides, in assay [3], the Kd turned out to be 0.652 nM, the off-rate (koff) worked out at 0.0016 s⁻¹ and the kon amounted to 2.46e+06 M⁻¹ s⁻¹.

B2: 7A6 VH3/Vκ3 humanized antibody (human IgG1, kappa) (antibody, V domains shown)
VH: QVQLQESGPGLVKPSQTLSLTCTVTGYSITSDYAWNWIRQPPGKGLEWMGYISYSGSARYNPSLKSRVTISRDTSKNQFSLKLSSVTAEDTATYYCARKGYPAYFAYWGQGTLVTVSS
VL: DIQMTQSPSSLSASVGDRVSITCKASQDVSTAVAWYQQKPGQAPRLLIYSASYRYTGVPDRFSGSGSGTDFTLTISSLQAEDVAVYYCQHHYSTPYTFGQGTKLEIKR
notes: Tested as IgG in supernatant of transiently transfected HEK293 EBNA cells
With B2, in assay [1], the “Relative KD” value stood at 1.38. In assay [3], the Kd turned out to be 0.903 nM, the koff came to 0.0015 s⁻¹ and the kon turned out to be 1.66e+06 M⁻¹ s⁻¹.

B3: 7A6 VH2/Vκ1 humanized antibody (human IgG1, kappa) (antibody, V domains shown)
VH: B2 VH with Q1D, V68I
VL: B2 VL with Q3V, P8H, S10F, R45E, S63T, I106M
notes: as for B2
B3: the “Relative KD” value in assay [1] stood at 1.1. In assay [3], the Kd is 0.715 nM, the koff is 0.00168 s⁻¹ and the kon came to 2.36e+06 M⁻¹ s⁻¹.

B4: 7A6 VH2/Vκ5 humanized antibody (human IgG1, kappa) (antibody, V domains shown)
VH: B2 VH with Q1D, V68I
VL: B2 VL with A80P, V83F, V85T
notes: as for B2
As to B4, the “Relative KD” value in assay [1] is 1.16. Further, in assay [3], the Kd came to 0.754 nM, the off-rate (koff) worked out at 0.0013 s⁻¹ and the kon came to 1.72e+06 M⁻¹ s⁻¹.

B5: 7A6 VH5/Vκ5 humanized antibody (human IgG1, kappa) (antibody, V domains shown)
VH: B2 VH with R72V, E89A, T93V
VL: B2 VL with A80P, V83F, V85T
notes: as for B2
Take B5: the “Relative KD” value in assay [1] stood at 1.92. Besides, in assay [3], the Kd was 1.25 nM, the koff was 0.0017 s⁻¹ and the kon worked out at 1.36e+06 M⁻¹ s⁻¹.

B6: 7A6 VH4/Vκ4 humanized antibody (human IgG1, kappa) (antibody, V domains shown)
VH: B2 VH with E89A, T93V
VL: B2 VL with S20T, K24R
notes: also called 7A6 VH4/Vk4; 7A6VH4/Vk4
For the molecule B6, the “Relative KD” value in assay [1] stood at 1.98. In assay [3], the Kd turned out to be 1.29 nM, the koff came out at 0.00192 s⁻¹ and the kon is 1.49e+06 M⁻¹ s⁻¹.

B7: 7A6 VH1/Vκ1 humanized antibody (human IgG1, kappa) (antibody, V domains shown)
VH: B2 VH with Q1D, V68I, K76M, S84N
VL: B2 VL with Q3V, P8H, S10F, R45E, S63T, I106M
notes: as for B2
Consider B7, for which the “Relative KD” value in assay [1] is 0.85. Besides, in assay [3], the Kd is 0.554 nM, the off-rate (koff) amounted to 0.00129 s⁻¹ and the kon stood at 2.33e+06 M⁻¹ s⁻¹.

B8: 7A6 VH5/Vκ3 humanized antibody (human IgG1, kappa) (antibody, V domains shown)
VH: B2 VH with R72V, E89A, T93V
VL: B2 VL
notes: as for B2
For B8, the “Relative KD” value in assay [1] was determined as 2.32. In assay [3], the Kd came to 1.51 nM, the dissociation rate constant (koff) came out at 0.00189 s⁻¹ and the kon was 1.25e+06 M⁻¹ s⁻¹.

B9: 7A6 VH4/Vκ2 humanized antibody (human IgG1, kappa) (antibody, V domains shown)
VH: B2 VH with E89A, T93V
VL: B2 VL with Q3V, S63T
notes: as for B2
Turning to B9, the “Relative KD” value in assay [1] is 1.63. Besides, in assay [3], the Kd amounted to 1.06 nM, the koff amounted to 0.00185 s⁻¹ and the kon came out at 1.75e+06 M⁻¹ s⁻¹.

B10: 7A6 VH5/Vκ2 humanized antibody (human IgG1, kappa) (antibody, V domains shown)
VH: B2 VH with R72V, E89A, T93V
VL: B2 VL with Q3V, S63T
notes: as for B2
B10: in assay [1], the “Relative KD” value amounted to 2.55. In assay [3], the Kd turned out to be 1.66 nM, the koff worked out at 0.00204 s⁻¹ and the kon turned out to be 1.23e+06 M⁻¹ s⁻¹.

B11: 7A6 VH5/Vκ1 humanized antibody (human IgG1, kappa) (antibody, V domains shown)
VH: B2 VH with R72V, E89A, T93V
VL: B2 VL with Q3V, P8H, S10F, R45E, S63T, I106M
notes: as for B2
As for B11, the “Relative KD” value in assay [1] worked out at 1.32. Moreover, in assay [3], the Kd came out at 0.858 nM, the koff is 0.00124 s⁻¹ and the kon worked out at 1.45e+06 M⁻¹ s⁻¹.

B12: 7A6 VH5/Vκ4 humanized antibody (human IgG1, kappa) (antibody, V domains shown)
VH: B2 VH with R72V, E89A, T93V
VL: B2 VL with S20T, K24R
notes: as for B2
Take B12: in assay [1], the “Relative KD” value came to 2.33. In assay [3], the Kd stood at 1.52 nM, the koff was 0.00181 s⁻¹ and the kon was found to be 1.19e+06 M⁻¹ s⁻¹.

B13: 7A6 VH3/Vκ1 humanized antibody (human IgG1, kappa) (antibody, V domains shown)
VH: B2 VH
VL: B2 VL with Q3V, P8H, S10F, R45E, S63T, I106M
notes: as for B2
As for B13, the “Relative KD” value in assay [1] worked out at 1.1. Also, in assay [3], the Kd turned out to be 0.715 nM, the koff was found to be 0.00155 s⁻¹ and the kon was determined as 2.17e+06 M⁻¹ s⁻¹.

B14: 7A6 VH1/Vκ4 humanized antibody (human IgG1, kappa) (antibody, V domains shown)
VH: B2 VH with Q1D, V68I, K76M, S84N
VL: B2 VL with S20T, K24R
notes: as for B2
Regarding B14, the “Relative KD” value in assay [1] was determined as 1.34. In assay [3], the Kd came out at 0.876 nM, the koff came to 0.00167 s⁻¹ and the kon was found to be 1.91e+06 M⁻¹ s⁻¹.

B15: 7A6 VH2/Vκ3 humanized antibody (human IgG1, kappa) (antibody, V domains shown)
VH: B2 VH with Q1D, V68I
VL: B2 VL
notes: as for B2
On to B15, for which, in assay [1], the “Relative KD” value was determined as 1.38. Besides, in assay [3], the Kd turned out to be 0.897 nM, the dissociation rate constant (koff) was determined as 0.00134 s⁻¹ and the on-rate (kon) came out at 1.49e+06 M⁻¹ s⁻¹.

B16: 7A6 VH1/Vκ3 humanized antibody (human IgG1, kappa) (antibody, V domains shown)
VH: B2 VH with Q1D, V68I, K76M, S84N
VL: B2 VL
notes: as for B2
For B16, in assay [1], the “Relative KD” value worked out at 1.48. In addition, in assay [3], the Kd amounted to 0.963 nM, the koff turned out to be 0.00182 s⁻¹ and the kon turned out to be 1.89e+06 M⁻¹ s⁻¹.

B17: 7A6 VH2/Vκ2 humanized antibody (human IgG1, kappa) (antibody, V domains shown)
VH: B2 VH with Q1D, V68I
VL: B2 VL with Q3V, S63T
notes: as for B2
Turning to B17, in assay [1], the “Relative KD” value is 1.47. For the same molecule, in assay [3], the Kd was 0.961 nM, the koff came out at 0.00158 s⁻¹ and the kon was 1.65e+06 M⁻¹ s⁻¹.

B18: 7A6 VH1/Vκ5 humanized antibody (human IgG1, kappa) (antibody, V domains shown)
VH: B2 VH with Q1D, V68I, K76M, S84N
VL: B2 VL with A80P, V83F, V85T
notes: as for B2
As to B18, in assay [1], the “Relative KD” value worked out at 1.1. Besides, in assay [3], the Kd was determined as 0.717 nM, the koff amounted to 0.00129 s⁻¹ and the kon is 1.8e+06 M⁻¹ s⁻¹.

B19: 7A6 VH4/Vκ1 humanized antibody (human IgG1, kappa) (antibody, V domains shown)
VH: B2 VH with E89A, T93V
VL: B2 VL with Q3V, P8H, S10F, R45E, S63T, I106M
notes: as for B2
B19: the “Relative KD” value in assay [1] is 0.94. Moreover, in assay [3], the Kd turned out to be 0.616 nM, the koff came out at 0.00107 s⁻¹ and the kon is 1.73e+06 M⁻¹ s⁻¹.

B20: 7A6 VH4/Vκ3 humanized antibody (human IgG1, kappa) (antibody, V domains shown)
VH: B2 VH with E89A, T93V
VL: B2 VL
notes: as for B2
Consider B20, for which, in assay [1], the “Relative KD” value worked out at 1.45. Moreover, in assay [3], the Kd was found to be 0.944 nM, the koff was 0.00175 s⁻¹ and the kon amounted to 1.85e+06 M⁻¹ s⁻¹.

B21: 7A6 VH3/Vκ4 humanized antibody (human IgG1, kappa) (antibody, V domains shown)
VH: B2 VH
VL: B2 VL with S20T, K24R
notes: as for B2
As to B21, the “Relative KD” value in assay [1] was 1.84. Also, in assay [3], the Kd amounted to 1.2 nM, the koff worked out at 0.00196 s⁻¹ and the association rate constant (kon) stood at 1.63e+06 M⁻¹ s⁻¹.

B22: 7A6 VH2/Vκ4 humanized antibody (human IgG1, kappa) (antibody, V domains shown)
VH: B2 VH with Q1D, V68I
VL: B2 VL with S20T, K24R
notes: as for B2
Consider B22, for which the “Relative KD” value in assay [1] was found to be 1.58. In assay [3], the Kd was 1.03 nM, the koff was 0.00181 s⁻¹ and the kon amounted to 1.75e+06 M⁻¹ s⁻¹.

B23: 7A6 VH3/Vκ2 humanized antibody (human IgG1, kappa) (antibody, V domains shown)
VH: B2 VH
VL: B2 VL with Q3V, S63T
notes: as for B2
With B23, the “Relative KD” value in assay [1] is 1.48. Also, in assay [3], the Kd was determined as 0.963 nM, the koff came to 0.00173 s⁻¹ and the kon turned out to be 1.8e+06 M⁻¹ s⁻¹.

B24: 7A6 VH1/Vκ2 humanized antibody (human IgG1, kappa) (antibody, V domains shown)
VH: B2 VH with Q1D, V68I, K76M, S84N
VL: B2 VL with Q3V, S63T
notes: as for B2
Turning to B24, the “Relative KD” value in assay [1] is 1.24. Moreover, in assay [3], the Kd was found to be 0.811 nM, the koff was determined as 0.00146 s⁻¹ and the kon was 1.8e+06 M⁻¹ s⁻¹.

B25: 7A6 VH4/Vκ5 humanized antibody (human IgG1, kappa) (antibody, V domains shown)
VH: B2 VH with E89A, T93V
VL: B2 VL with A80P, V83F, V85T
notes: as for B2
Consider B25, for which, in assay [1], the “Relative KD” value came out at 1.41. Further, in assay [3], the Kd is 0.922 nM, the off-rate (koff) was determined as 0.00162 s⁻¹ and the kon was 1.76e+06 M⁻¹ s⁻¹.
